# Test results from US20150133651, “CslA9 Gluco-mannan Synthase Gene” (published 2015).
# B1: CSLA9 promoter -705 to -556 (dsDNA)
# DNA 1: CTTAAAATAACAATTTGTTTTGTATCTTCGCCTGGACGTCATTAATGTTTGTGTCGTTCAATAATGTTTGGTAGTTATATATAGAAAGAGCAAATTTATGGTTGATTGATGGTGCAAAAAAATTCATTTCTCTATATTCTAGAGAAATAA
# DNA 2: TTATTTCTCTAGAATATAGAGAAATGAATTTTTTTGCACCATCAATCAACCATAAATTTGCTCTTTCTATATATAACTACCAAACATTATTGAACGACACAAACATTAATGACGTCCAGGCGAAGATACAAAACAAATTGTTATTTTAAG
# Columns and labels:
# [1] = target: MYB83 (At3g08500) (Arabidopsis thaliana, UniProt Q9C6U1 Q9C6U1:1-343); test: EMSA; 10 mM Tris pH 7.5, 50 mM KCl, 5 mM MgCl2, poly(dI-dC); details: tags: GST fusion, E. coli Rosetta gami; label: 32P
# Experimental: (§1) DNA fragments for EMSA were obtained by PCR-amplification and labeled with [γ-³²P]ATP using T4 polynucleotide kinase (NEB). The end-labeled probes were purified with Microspin S-200 HR column (GE Healthcare). The labeled DNA fragments were incubated for 25 min with 50 ng of GST-MYB46, GST-MYB83, GST-bZIP1 and GSTANAC041 in a binding buffer [10 mM Tris (pH 7.5), 50 mM KCl, 1 mM DTT, 2.5% glycerol, 5 mM MgCl₂, 100 μg/ml BSA, and 50 ng/μL poly(dI-dC)]. Five percent polyacrylamide gel electrophoresis (PAGE) was used to separate the recombinant protein-bound DNA fragments from the unbound ones. The gel was dried and placed in a film cassette and exposed to X-ray film (Kodak) for overnight. Radioactive fragments were visualized by autoradiography.
# [2] = target: MYB46 (Arabidopsis thaliana, UniProt Q9LXV2 SEQ:1-280); test: EMSA; 10 mM Tris pH 7.5, 50 mM KCl, 5 mM MgCl2, poly(dI-dC); competed by 50x unlabeled probe; details: tags: GST fusion, E. coli Rosetta gami; label: 32P
# Experimental: as §1
# To evaluate whether MYB46 could directly bind to the CSLA9 promoter sequence, electrophoretic mobility shift assays (EMSAs) were performed with the GST-MYB46 fusion protein as described in Example 1.
# MYB83 (At3g08500), sequence (Q9C6U1 whole entry, the tested form may be a part, one chain of several): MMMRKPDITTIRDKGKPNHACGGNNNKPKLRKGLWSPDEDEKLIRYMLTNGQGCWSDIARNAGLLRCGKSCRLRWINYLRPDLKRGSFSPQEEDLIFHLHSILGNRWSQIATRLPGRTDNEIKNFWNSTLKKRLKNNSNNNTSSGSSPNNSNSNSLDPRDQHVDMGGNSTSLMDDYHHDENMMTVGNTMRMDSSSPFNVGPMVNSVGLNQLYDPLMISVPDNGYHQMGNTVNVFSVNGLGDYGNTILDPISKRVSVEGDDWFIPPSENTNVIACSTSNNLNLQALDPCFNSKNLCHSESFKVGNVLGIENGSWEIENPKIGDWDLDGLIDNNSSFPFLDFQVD
# MYB46, sequence (Q9LXV2 whole entry, the tested form may be a part): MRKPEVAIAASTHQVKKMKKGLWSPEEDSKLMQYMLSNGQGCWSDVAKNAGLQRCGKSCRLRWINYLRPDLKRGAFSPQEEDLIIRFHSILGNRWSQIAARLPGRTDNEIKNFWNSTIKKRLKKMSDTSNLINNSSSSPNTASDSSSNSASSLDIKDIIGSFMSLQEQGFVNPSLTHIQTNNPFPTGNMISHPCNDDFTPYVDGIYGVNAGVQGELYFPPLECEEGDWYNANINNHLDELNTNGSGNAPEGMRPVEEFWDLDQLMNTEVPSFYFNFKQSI
binder,measurement,setting,value
B1,binding result,[1],binds
same,binding result,[2],binds
